First the molecules themselves.
T1: FcγRIIB (human, UniProt P31994 43-217, biotin-labeled)
T1 construct: extracellular domain; Bought protein; also called CD32b
T1 sequence (looked up): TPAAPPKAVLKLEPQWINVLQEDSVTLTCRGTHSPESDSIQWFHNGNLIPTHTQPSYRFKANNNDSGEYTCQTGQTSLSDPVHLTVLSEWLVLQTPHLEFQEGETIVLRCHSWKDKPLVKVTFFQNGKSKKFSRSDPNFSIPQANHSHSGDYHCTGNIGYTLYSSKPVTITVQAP

T2: FcγRIIA^131R (human, UniProt P12318 34-217, biotin-labeled)
T2 construct: extracellular domain; Bought protein; also called RIIAR
T2 sequence (looked up): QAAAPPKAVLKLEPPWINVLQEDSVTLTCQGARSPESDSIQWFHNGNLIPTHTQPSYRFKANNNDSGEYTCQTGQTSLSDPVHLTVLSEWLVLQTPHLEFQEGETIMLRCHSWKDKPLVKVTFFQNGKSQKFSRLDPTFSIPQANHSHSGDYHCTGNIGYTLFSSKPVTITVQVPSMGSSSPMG

T3: FcγRIIA^131H (human, UniProt P12318 34-217, biotin-labeled)
T3 construct: extracellular domain; Bought protein; also called RIIAH
T3 sequence (looked up): T2 sequence (looked up) with R134H

B1: IgG2 N297A (antibody, name in EU numbering)
heavy: QVQLQESGPGLVKPSGTLSLTCAVSGGSISSSIWWSWVRQPPGKGLEWIGEIHHSGNTNCNPSLKSRVTISIDKSKNQFSLKLTSVTAADTAVYYCARAGTGTTLDYWGQGTLVTVSSASTKGPSVFPLAPCSRSTSESTAALGCLVKDYFPEPVTVSWNSGALTSGVHTFPAVLQSSGLYSLSSVVTVPSSNFGTQTYTCNVDHKPSNTKVDKTVERKCCVECPPCPAPPVAGPSVFLFPPKPKDTLMISRTPEVTCVVVDVSHEDPEVQFNWYVDGVEVHNAKTKPREEQFASTFRVVSVLTVVHQDWLNGKEYKCKVSNKGLPAPIEKTISKTKGQPREPQVYTLPPSREEMTKNQVSLTCLVKGFYPSDIAVEWESNGQPENNYKTTPPMLDSDGSFFLYSKLTVDKSRWQQGNVFSCSVMHEALHNHYTQKSLSLSPGK
light: EIVLTQSPGTLSLSPGERATLSCRASQSVSGDYLAWYQQKLGQAPRLLIYGASIRATGIPDRFSGSGSGTDFTLTISKLEPEDFAVYYCQQYGSSPLTFGGGTKVEIKRTVAAPSVFIFPPSDEQLKSGTASVVCLLNNFYPREAKVQWKVDNALQSGNSQESVTEQDSKDSTYSLSSTLTLSKADYEKHKVYACEVTHQGLSSPVTKSFNRGEC
notes: Entries include an unstated signal peptide
B2: anti-human OX40 IgG2 antibody Mut_4 (V234M/S267E/S298L/L328W) (antibody)
heavy: B1 heavy with V232M, S264E, A294N, S295L, L325W
light: B1 light
notes: Substitutions in Eu numbering; entries include an unstated signal peptide
B3: anti-human OX40 IgG2 antibody Mut_3 (S267V/S298L/L328W) (antibody, name in EU numbering)
heavy: B1 heavy with S264V, A294N, S295L, L325W
light: B1 light
notes: as for B2
B4: anti-human OX40 IgG2 antibody Mut_6 (V234Q/A235G/P238L/S239V/H268D/G327A/L328E/A330S/I332T) (antibody)
heavy: B1 heavy with V232Q, A233G, P235L, S236V, H265D, A294N, G324A, L325E, A327S, I329T
light: B1 light
notes: entries include an unstated signal peptide
B5: anti-human OX40 IgG2 antibody Mut_2 (H268D/S298L/L328W) (antibody, name in EU numbering)
heavy: B1 heavy with H265D, A294N, S295L, L325W
light: B1 light
notes: as for B2
B6: anti-human OX40 IgG2 antibody Mut_5 (A235W/V266L/S298L/L328W) (antibody)
heavy: B1 heavy with A233W, V263L, A294N, S295L, L325W
light: B1 light
notes: as for B2
B7: anti-human OX40 IgG2 antibody Mut_1 (L328W) (antibody, name in EU numbering)
heavy: B1 heavy with A294N, L325W
light: B1 light
notes: as for B2

Numbering of substitutions follows the chain as printed. Numbers in names are those of the source.

T4 sequence (P08637 17-208): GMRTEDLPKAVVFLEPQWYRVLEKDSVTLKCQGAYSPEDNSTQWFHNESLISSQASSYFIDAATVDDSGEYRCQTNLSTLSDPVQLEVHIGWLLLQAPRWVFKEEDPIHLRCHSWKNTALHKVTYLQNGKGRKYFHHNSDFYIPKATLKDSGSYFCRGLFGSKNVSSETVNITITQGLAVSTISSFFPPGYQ

One experiment addresses T1, FcγRIIB. The experiment is described as follows: ELISA, coated antibody, biotin-FcγR.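 On Absorbance value: antibody coated at 2 µg/mL at 100 µL per well.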 On the procedure: (§1) One hundred μl (2 μg/mL) of antibody or mutant thereof were added to the enzyme-linked plate to be coated overnight, then the supernatant was discarded. The plate was blocked with PBS containing 1% BSA for 2 hours, and washed with PBST (PBS containing 0.05% Tween 20). Biotin-labeled FcγR extracellular domain protein (Beijing Sino Biological Co., Ltd) of appropriate concentration was added and incubated at room temperature for 1 hour, then the supernatant was discarded and the plate was washed with PBST. The Biotin-labeled protein was detected by incubating with Streptavidin-HRP (BD BioSciences) at room temperature for 1 hour. The supernatant was removed, and the color-developing solution was added for color development for 20-40 minutes to determine the absorbance of 650 nm (A650).
(§2) Anti-human OX40 antibodies containing these new Fc mutation combinations are expressed and the binding property of the mutant antibody to FcγR are analyzed by Enzyme-linked immunosorbent assay (ELISA).
(In general: ELISA stands for enzyme-linked immunosorbent assay.)
Consider B1, for which the Absorbance value is 0.07 A650, the “Increased factor of RIIB binding compared with wild-type IgG2” value (“Increased factor of RIIB binding” for short) was found to be 0.93 fold and the “Relative binding affinity RIIB/G1” value is 0.09 ratio.
As for B2, the Absorbance value turned out to be 1.92 A650, the “Increased factor of RIIB binding” value came to 25.6 fold and the “Relative binding affinity RIIB/G1” value was determined as 2.54 ratio.
With B3, the Absorbance value was 0.94 A650, the “Increased factor of RIIB binding” value came to 12.6 fold and the “Relative binding affinity RIIB/G1” value stood at 1.25 ratio.
B4: the Absorbance value was determined as 0.5 A650, the “Increased factor of RIIB binding” value came to 6.63 fold and the “Relative binding affinity RIIB/G1” value was 0.66 ratio.
The corresponding values for B5 are 1 A650, 13.4 fold and 1.33 ratio.
For B6, in that order: 1.18 A650, 15.7 fold and 1.56 ratio.
For B7, the Absorbance value turned out to be 0.64 A650, the “Increased factor of RIIB binding” value was found to be 8.51 fold and the “Relative binding affinity RIIB/G1” value came out at 0.85 ratio.

The next experiment has as its target T2, FcγRIIA^131R. The experiment is described as follows: ELISA, coated antibody, biotin-FcγR.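 On Absorbance value: antibody coated at 2 µg/mL at 100 µL per well.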 On the procedure: as §1, §2
For the molecule B2, the Absorbance value was determined as 1.44 A650 and the “Relative binding affinity RIIAR/G1” value came out at 5.51 ratio.
For B3, in that order: 0.23 A650 and 0.87 ratio.
B4: the Absorbance value came out at 0.05 A650 and the “Relative binding affinity RIIAR/G1” value turned out to be 0.19 ratio.
As to B5, the Absorbance value is 0.29 A650 and the “Relative binding affinity RIIAR/G1” value turned out to be 1.09 ratio.
As for B6, the Absorbance value stood at 0.46 A650 and the “Relative binding affinity RIIAR/G1” value was found to be 1.77 ratio.
The corresponding values for B7 are 0.22 A650 and 0.83 ratio.

Another experiment addresses T4, FcγRIIIA^158F (human, UniProt P08637 17-208, biotin-labeled).
T4 construct: extracellular domain; Bought protein; also called RIIIAF
In words: ELISA, coated antibody, biotin-FcγR.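 On Absorbance value: antibody coated at 2 µg/mL at 100 µL per well.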 On the procedure:
as §1, §2
With B2, the Absorbance value stood at 0.06 A650 and the “Relative binding affinity RIIIAF/G1” value was found to be 0.32 ratio.
For the molecule B3, the Absorbance value was 0.08 A650 and the “Relative binding affinity RIIIAF/G1” value is 0.4 ratio.
Regarding B4, the Absorbance value is 0.06 A650 and the “Relative binding affinity RIIIAF/G1” value worked out at 0.3 ratio.
The corresponding values for B5 are 0.07 A650 and 0.38 ratio.
With B6, the Absorbance value was 0.06 A650 and the “Relative binding affinity RIIIAF/G1” value is 0.31 ratio.
For B7, in that order: 0.07 A650 and 0.38 ratio.

Another experiment deals with T5, FcγRI (human, UniProt P12314 16-292, biotin-labeled).
T5 construct: extracellular domain; Bought protein; also called CD64
T5 sequence (P12314 16-292): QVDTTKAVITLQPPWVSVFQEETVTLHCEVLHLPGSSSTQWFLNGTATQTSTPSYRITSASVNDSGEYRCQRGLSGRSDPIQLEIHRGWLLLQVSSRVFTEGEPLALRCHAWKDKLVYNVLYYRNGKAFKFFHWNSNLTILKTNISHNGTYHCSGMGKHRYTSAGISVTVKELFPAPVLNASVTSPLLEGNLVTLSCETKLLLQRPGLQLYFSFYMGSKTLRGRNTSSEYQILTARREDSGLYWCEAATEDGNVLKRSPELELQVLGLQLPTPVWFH
The experiment is described as follows: ELISA, coated antibody, biotin-FcγR.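 On Absorbance value: antibody coated at 2 µg/mL at 100 µL per well.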 On the procedure: as §1, §2
Consider B1, for which the Absorbance value is 0.08 A650 and the “Relative binding affinity RI/G1” value was found to be 0.03 ratio.
B2: the Absorbance value was 0.25 A650 and the “Relative binding affinity RI/G1” value was determined as 0.1 ratio.
For B3, in that order: 0.18 A650 and 0.07 ratio.
For the molecule B4, the Absorbance value came to 0.09 A650 and the “Relative binding affinity RI/G1” value stood at 0.03 ratio.
For B5, in that order: 0.14 A650 and 0.05 ratio.
The corresponding values for B6 are 0.38 A650 and 0.14 ratio.
The corresponding values for B7 are 0.17 A650 and 0.06 ratio.

The target of a further experiment is T6, FcγRIIIA^158V (human, UniProt P08637 17-208, biotin-labeled).
T6 construct: extracellular domain; Bought protein; also called RIIIAV; CD16a 158V
T6 sequence (P08637 17-208 F176V): as the sequence (P08637 17-208) above, with F160V counted along it
In words: ELISA, coated antibody, biotin-FcγR.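 On Absorbance value: antibody coated at 2 µg/mL at 100 µL per well.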 On the procedure: as §1, §2
Consider B1, for which the Absorbance value was 0.06 A650 and the “Relative binding affinity RIIIAV/G1” value was determined as 0.06 ratio.
Turning to B2, the Absorbance value stood at 0.05 A650 and the “Relative binding affinity RIIIAV/G1” value stood at 0.06 ratio.
For B3, in that order: 0.07 A650 and 0.08 ratio.
As for B4, the Absorbance value amounted to 0.06 A650 and the “Relative binding affinity RIIIAV/G1” value was 0.06 ratio.
For B5, in that order: 0.06 A650 and 0.06 ratio.
With B6, the Absorbance value turned out to be 0.06 A650 and the “Relative binding affinity RIIIAV/G1” value was 0.07 ratio.
On to B7, for which the Absorbance value came to 0.09 A650 and the “Relative binding affinity RIIIAV/G1” value is 0.09 ratio.

For the next experiment, the target named is T3, FcγRIIA^131H. In words: ELISA, coated antibody, biotin-FcγR.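 On Absorbance value: antibody coated at 2 µg/mL at 100 µL per well.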 On the procedure: as §1, §2
Regarding B1, the Absorbance value was determined as 0.04 A650 and the “Relative binding affinity RIIAH/G1” value worked out at 0.08 ratio.
The corresponding values for B2 are 0.48 A650 and 0.84 ratio.
With B3, the Absorbance value came out at 0.34 A650 and the “Relative binding affinity RIIAH/G1” value is 0.6 ratio.
In the case of B4, the Absorbance value was 0.05 A650 and the “Relative binding affinity RIIAH/G1” value was 0.08 ratio.
With B5, the Absorbance value came to 0.32 A650 and the “Relative binding affinity RIIAH/G1” value is 0.56 ratio.
On to B6, for which the Absorbance value was determined as 0.46 A650 and the “Relative binding affinity RIIAH/G1” value worked out at 0.81 ratio.
For B7, in that order: 0.35 A650 and 0.62 ratio.

The target of a further experiment is T1, FcγRIIB. The experiment is described as follows: ELISA; relative affinity to FcγRIIB over that to FcγRIIA131R. On the procedure:
as §1, §2
For the molecule B1, the RIIB/RIIAR was found to be 0.57 ratio.
On the same count and under the same terms, for B2 the value was 0.46 ratio; for B3, 1.44 ratio.
In the case of B4, the RIIB/RIIAR was found to be 3.52 ratio.
Still for that read-out and setting: for B5 the value was 1.21 ratio; for B6, 0.88 ratio.
With B7, the RIIB/RIIAR was found to be 1.02 ratio.
